Experimental data as given in patent US20240052042A1 (Novartis, published 2024).

T1: human Natriuretic Peptide Receptor 1 (hNPR1) (human, UniProt P16066 33-473, limits assumed)
T1 construct: pannings used NPR1-hFc; also called NPR1-hFc
T1 sequence: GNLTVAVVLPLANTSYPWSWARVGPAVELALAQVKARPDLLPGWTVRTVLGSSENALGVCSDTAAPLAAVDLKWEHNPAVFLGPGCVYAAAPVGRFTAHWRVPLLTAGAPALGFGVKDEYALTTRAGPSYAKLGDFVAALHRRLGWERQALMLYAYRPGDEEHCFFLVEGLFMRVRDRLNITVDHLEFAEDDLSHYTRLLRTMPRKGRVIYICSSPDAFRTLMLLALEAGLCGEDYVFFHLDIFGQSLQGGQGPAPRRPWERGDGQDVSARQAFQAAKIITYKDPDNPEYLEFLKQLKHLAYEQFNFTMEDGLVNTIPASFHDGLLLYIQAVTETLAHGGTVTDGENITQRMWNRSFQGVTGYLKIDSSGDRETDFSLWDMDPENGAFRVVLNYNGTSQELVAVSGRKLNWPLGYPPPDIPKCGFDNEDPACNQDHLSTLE

T2: hNPR1-ANP complex (human, UniProt P01160 124-151, limits assumed)
T2 construct: hNPR1 antigen in the presence of ANP; also called hNPR1 + 100 nM ANP
T2 sequence: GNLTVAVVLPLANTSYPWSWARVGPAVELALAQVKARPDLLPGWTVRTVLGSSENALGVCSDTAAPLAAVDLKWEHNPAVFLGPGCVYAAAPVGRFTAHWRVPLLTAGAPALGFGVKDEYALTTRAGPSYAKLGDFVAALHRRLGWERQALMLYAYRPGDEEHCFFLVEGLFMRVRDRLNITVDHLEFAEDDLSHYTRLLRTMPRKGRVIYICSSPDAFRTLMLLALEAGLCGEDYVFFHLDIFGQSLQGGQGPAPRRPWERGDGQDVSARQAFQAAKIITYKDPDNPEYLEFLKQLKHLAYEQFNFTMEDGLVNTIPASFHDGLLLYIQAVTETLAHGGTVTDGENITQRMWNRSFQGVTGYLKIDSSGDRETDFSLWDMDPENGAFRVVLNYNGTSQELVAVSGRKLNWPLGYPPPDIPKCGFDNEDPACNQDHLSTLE
T2 sequence (peptide): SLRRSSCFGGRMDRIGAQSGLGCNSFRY

T3: rat NPR1 (rNPR1) (rat, UniProt P18910 29-469, limits assumed)
T3 construct: Soluble antigen
T3 sequence: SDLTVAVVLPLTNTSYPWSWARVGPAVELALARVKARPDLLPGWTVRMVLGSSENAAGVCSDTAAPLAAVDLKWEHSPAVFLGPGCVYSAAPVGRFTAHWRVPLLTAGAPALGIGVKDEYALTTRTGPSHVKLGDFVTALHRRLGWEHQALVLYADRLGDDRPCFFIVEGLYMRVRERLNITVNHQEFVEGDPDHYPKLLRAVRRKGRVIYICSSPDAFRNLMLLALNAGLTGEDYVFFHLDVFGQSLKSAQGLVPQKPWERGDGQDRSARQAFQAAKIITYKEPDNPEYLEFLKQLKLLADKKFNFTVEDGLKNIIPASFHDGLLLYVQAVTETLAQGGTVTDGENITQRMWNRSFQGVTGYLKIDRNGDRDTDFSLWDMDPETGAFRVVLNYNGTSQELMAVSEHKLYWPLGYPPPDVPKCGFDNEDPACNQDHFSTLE

T4: human NPR3 (counter target) (human, UniProt P17342 27-481, limits assumed)
T4 construct: Pannings used hNPR3-hFc; also called hNPR3; hNPR3-hFc
T4 sequence (looked up): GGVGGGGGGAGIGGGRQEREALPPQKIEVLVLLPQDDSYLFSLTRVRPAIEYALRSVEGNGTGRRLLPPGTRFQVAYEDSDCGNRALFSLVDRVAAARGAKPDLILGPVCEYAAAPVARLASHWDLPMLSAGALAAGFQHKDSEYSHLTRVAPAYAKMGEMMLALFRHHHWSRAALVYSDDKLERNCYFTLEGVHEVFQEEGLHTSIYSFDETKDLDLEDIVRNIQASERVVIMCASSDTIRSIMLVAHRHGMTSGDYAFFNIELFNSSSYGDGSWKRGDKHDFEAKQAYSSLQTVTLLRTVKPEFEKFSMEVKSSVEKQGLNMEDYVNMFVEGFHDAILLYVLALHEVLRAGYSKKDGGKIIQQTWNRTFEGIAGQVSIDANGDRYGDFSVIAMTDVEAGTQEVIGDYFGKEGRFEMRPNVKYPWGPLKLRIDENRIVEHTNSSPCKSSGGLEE

T5: human NPR3 in the presence of ANP (human, UniProt P17342 27-481; P01160 124-151, limits assumed)
T5 construct: also called hNPR3 + 100 nM ANP
T5 sequence (looked up): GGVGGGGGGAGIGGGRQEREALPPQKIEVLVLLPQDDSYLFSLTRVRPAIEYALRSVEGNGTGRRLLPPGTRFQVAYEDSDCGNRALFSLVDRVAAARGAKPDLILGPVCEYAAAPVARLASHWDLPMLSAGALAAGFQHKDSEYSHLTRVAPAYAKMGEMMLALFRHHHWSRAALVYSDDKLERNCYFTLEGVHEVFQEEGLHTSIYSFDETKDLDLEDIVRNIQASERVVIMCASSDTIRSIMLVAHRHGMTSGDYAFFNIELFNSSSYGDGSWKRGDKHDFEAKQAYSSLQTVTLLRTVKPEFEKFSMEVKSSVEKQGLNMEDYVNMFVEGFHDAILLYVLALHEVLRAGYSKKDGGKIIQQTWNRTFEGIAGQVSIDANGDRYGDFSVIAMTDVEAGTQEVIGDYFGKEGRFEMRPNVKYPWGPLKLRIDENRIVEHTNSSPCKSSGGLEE
T5 sequence (peptide, looked up): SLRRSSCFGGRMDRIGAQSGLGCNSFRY


Columns and labels:
[1] = target: W74R hNPR1 mutant in the presence of ANP (human) (UniProt P01160); assay: ELISA, 1 µM IgG
[2] = target: constitutively active human NPR1 mutant (W74R) (human) (UniProt P16066); assay: ELISA, 1 µM IgG
[3] = target: T1, human Natriuretic Peptide Receptor 1 …; assay: ELISA, 1 µM IgG; parameters: unit not given here
hNPR1-ANP complex = target: T2, hNPR1-ANP complex; assay: ELISA, 1 µM IgG; parameters: unit not given here
rat NPR1 (rNPR1) = target: T3, rat NPR1 (rNPR1); assay: ELISA, 1 µM IgG; parameters: unit not given here
[4] = target: T4, human NPR3 (counter target); assay: ELISA, 1 µM IgG; parameters: unit not given here
[5] = target: T5, human NPR3 in the presence of ANP; assay: ELISA, 1 µM IgG; parameters: unit not given here
[6] = target: constitutively active human NPR1 mutant (W74R) (human) (UniProt P16066); assay: ELISA, IgG titrated on coated antigen, fluorescence [Cont.]

ELISA binding at 1 µM IgG [1] | ELISA binding at 1 µM IgG [2] | ELISA binding at 1 µM IgG [3] | ELISA binding at 1 µM IgG (hNPR1-ANP complex) | ELISA binding at 1 µM IgG (rat NPR1 (rNPR1)) | ELISA binding at 1 µM IgG [4] | ELISA binding at 1 µM IgG [5] | EC50 (read off the curve) [6] | Binder
86 | 83 | 91 | 102 | 3 | 6 | 6 | 5 nM | YY06 (IgG format) (antibody, V domains shown, also called YY06_LALA) VH: EVQLLESGGGLVQPGGSLRLSCAASGFTFSSYAISWVRQAPGKGLEWVSAISGSGGSTYYAESVKGRFTISRDNSKNTLYLQMNSLRAEDTAVYYCARPYLGDRRSYGFDHWGQGTLVTVSS VL: QSALTQPASVSGSPGQSITISCTGTSSDVGSYNLVSWYQQHPGKAPKLMIYEGSKRPSGVSNRFSGSKSGNTASLTISGLQAEDEADYYCSSYGFHIVVVVFGGGTKLTVLG
20 | 53 | 68 | 24 | 3 | 6 | 5 | 2 nM | YY07 (IgG format) (antibody, V domains shown, also called YY07_LALA) VH: EVQLVQSGAEVKKPGESLKISCKGSGYSFTSYWISWVRQMPGKGLEWMGIIYPGTSYTRYSPSFQGQVTISADKSISTAYLQWSSLKASDTAMYYCARGSLPGLLGFDHWGQGTLVTVSS VL: QSVLTQPPSVSGAPGQRVTISCTGSSSNIGAGYDVHWYQQLPGTAPKLLIYGNSNRPNGVPDRFSGSKSGTSASLAITGLQAEDEADYYCQSYDSPTSSSVFGGGTKLTVLG
